Experimental findings from patent US20030144205A1 (published 2003) are described below.

B1: cyclin B1, full-length (other)
chain: MALRVTRNTKINAENKAKVSMAGAKRVPVTVTAASKPGLRPRTALGDIGNKVSEELQARVPLKREAKTLGTGKGTVKALPKPVEKVPVCEPEVELAEPEPEPELEHVREEKLSPEPILVDNPSPSPMETSGCAPAEEYLCQAFSDVILAVSDVDADDGADPNLCSEYVKDIYAYLRQLEEEQSVRPKYLQGREVTGNMRAILIDWLIQVQMKFRLLQETMYMTVSIIDRFMQNSCVPKKMLQLVGVTAMFIASKYEEMYPPEIGDFAFVTNNTYTKHQIRQMEMKILRVLNFSLGRPLPLHFLRRASKVGEVDVEQHTLAKYLMELSMLDYDMVHFAPSQIAAGAFCLALKILDNGEWTPTLQHYLSYSEDSLLPVMQHLAKNVVMVNCGLTKHMTVKNKYAASKHAKISTLAQLNCTLVQNLSKAVTKA
notes: 47 kDa; also called Ccnb1; CCNB1
B2: Microfibrillar-associated protein 2 (MFAP2) (other, mouse, UniProt P55002 17-183, looked up)
chain: QGQYDLDPLPPFPDHVQYNHYGDQIDNADYYDYQEVSPRTPEEQFQSQQQVQQEVIPAPTPEPAAAGDLETEPTEPGPLDCREEQYPCTRLYSIHKPCKQCLNEVCFYSLRRVYVVNKEICVRTVCAHEELLRADLCRDKFSKCGVMAVSGLCQSVAASCARSCGGC
notes: Prey from the ovary cDNA library (pGADT7)
B3: Myosin light chain, alkali, non-muscle (MYLN) (other, mouse, UniProt Q60605 1-151, looked up)
chain: MCDFTEDQTAEFKEAFQLFDRTGDGKILYSQCGDVMRALGQNPTNAEVLKVLGNPKSDEMNVKVLDFEHFLPMLQTVAKNKDQGTYEDYVEGLRVFDKEGNGTVMGAEIRHVLVTLGEKMTEEEVEMLVAGHEDSNGCINYEAFVRHILSG
notes: Prey from the ovary cDNA library (pGADT7); Tags as for the other preys
B4: proteasome subunit β, type 1 (PSMB1) (other, mouse, UniProt O09061 1-240, looked up)
chain: MLSTAAYRDVERELGMGPHGSAGPVQLRFSPYAFNGGTVLAIAGEDFSIVASDTRLSEGFSIHTRDSPKCYKLTDKTVIGCSGFHGDCLTLTKIIEARLKMYKHSNNKAMTTGAIAAMLSTILYSRRFFPYYVYNIIGGLDEEGKGAVYSFDPVGSYQRDSFKAGGSASAMLQPLLDNQVGFKNMQNVEHVPLTLDRAMRLVKDVFISAAERDVYTGDALRICIVTKEGIREETVPLRKD
notes: In vitro: HA tagged; CHO cells: C-terminal MYC tag; 25 kDa; also called Proteasome beta type 1 subunit (PSMB1); pGADT7-PSMB1
B5: ATP synthase, H+ transporting, mitochondrial F0 complex, subunit F (ATP5J) (other, mouse, UniProt P97450 1-108, looked up)
chain: MVLQRIFRLSSVLRSAVSVHLKRNIGVTAVAFNKELDPVQKLFVDKIREYKSKRQASGGPVDIGPEYQQDLDRELYKLKQMYGKGEMDTFPTFKFDDPKFEVIDKPQS
notes: as for B2
B6: mouse RFPL4, full-length (amino acid residues 1-287) (other, UniProt Q8VH31 1-287, looked up)
chain: MAHLFKEKSNCYFCFRCLESPVYLNCGYICCLKCLDSLEKSPEGDGVLCPTCSVVSLKEDIIHAKQLGALVTKIKNLEPQLNFILTMDQGMKIFQVTMTLDVDTAQNHLIISDDLLSVYYTPQKQARKKCAERFHPSPCVLGSSRFTSGRHYWEVVVGTSKEWDIGICKESINRKKAIHLSEKNGFWTVGVRAKKVYSASTDPLTVLRVNPRLRRVGIFLDMLEKSVSFWDLSDGSHIYTFLEIPDTDPFRPFFSPASSYPDGDQEQVLSICPVTNPGIFGIPVNPQ
notes: One entry is used for all tagged forms; CHO cells: C-terminal FLAG (pCMV-Tag4A) or C-terminal MYC (pCMV-Tag5A); Western blot: endogenous protein in mouse tissue lysates; also called mRFPL4; pGBKT7-RFPL4
B7: Cytochrome C oxidase subunit II (MT-CO2) (other, mouse, UniProt P00405 1-227, looked up)
chain: MAYPFQLGLQDATSPIMEELMNFHDHTLMIVFLISSLVLYIISLMLTTKLTHTSTMDAQEVETIWTILPAVILIMIALPSLRILYMMDEINNPVLTVKTMGHQWYWSYEYTDYEDLCFDSYMIPTNDLKPGELRLLEVDNRVVLPMELPIRMLISSEDVLHSWAVPSLGLKTDAIPGRLNQATVTSNRPGLFYGQCSEICGSNHSFMPIVLEMVPLKYFENWSASMI
notes: as for B2
B8: Solute carrier family 25, member 5 (SLC25A5) (other, mouse, UniProt P51881 1-298, looked up)
chain: MTDAAVSFAKDFLAGGVAAAISKTAVAPIERVKLLLQVQHASKQITADKQYKGIIDCVVRIPKEQGVLSFWRGNLANVIRYFPTQALNFAFKDKYKQIFLGGVDKRTQFWRYFAGNLASGGAAGATSLCFVYPLDFARTRLAADVGKAGAEREFKGLGDCLVKIYKSDGIKGLYQGFNVSVQGIIIYRAAYFGIYDTAKGMLPDPKNTHIFISWMIAQSVTAVAGLTSYPFDTVRRRMMMQSGRKGTDIMYTGTLDCWRKIARDEGSKAFFKGAWSNVLRGMGGAFVLVLYDEIKKYT
notes: as for B2

Data set [1] concerns the target T1, HR6A (Ube2a), full-length (mouse, UniProt Q9Z255 1-152).
T1 construct: also called pGADT7-HR6A; MYC-tagged HR6A
Kind of data set: anti-FLAG co-immunoprecipitation from lysates of cotransfected CHO cells (FLAG-tagged cyclin B1).

Data set [2] concerns the target B6. Kind of data set: yeast two-hybrid cotransformation.
Data set [3] concerns the target B6. The data set can be described thus: yeast two-hybrid mating screen of the ovary cDNA library with pGBKT7-RFPL4 as bait.
For data set [4], the target named is Lysosomal-associated protein 4 (LAPTM4A) (mouse, UniProt Q60961 1-233). Kind of data set: yeast two-hybrid cotransformation.
The data set “cyclin B1, full-length” addresses B1. Kind of data set: co-immunoprecipitation of 35S-labelled proteins translated in vitro in reticulocyte lysate.
Procedure: The pGBKT7 (MYC-Tagged) and pGADT7 (HA-Tagged) vectors were used as templates for in vitro transcription/translation using [³⁵S]Met and the TNT T7 Coupled Reticulocyte Lysate System (Promega, Madison, Wis.). In vitro translated proteins were combined at room temperature for 1 h, and reciprocal co-immunoprecipitation experiments were performed using mouse anti-MYC monoclonal or rabbit anti-HA polyclonal antibodies (Clontech).
Epitope tagged bait and prey proteins were transcribed by T7 polymerase from pGBKT7 and pGADT7 templates without DNA binding or transactivation domains. As positive control vectors, pGBKT7-murine p53 (MYC-epitope tagged) and pGADT7-SV40 large T (HA-epitope tagged) were used. ³⁵S-methionine was included in translation mixtures to generate products detectable by autoradiography.
Data set [5] concerns the target T1, HR6A (Ube2a), full-length. Kind of data set: yeast two-hybrid cotransformant growth/fluorescence assay.
Source text: (§1) Briefly, after inoculation, the initial fluorescence was checked and the cells were allowed to grow for 40 hr, and then the fluorescence of an oxygen sensitive dye using the [sequence] Biosensor kit (Clontech) was rechecked. Fluorescence was excited at 485 nm, and emission was read at 630 nm. To find the fold increase in fluorescence, an indication of yeast growth in selection media, the fluorescence intensity at time t=40 hr was divided by the initial intensity recorded at time t=0 hr (Fluorescence(t40)/Fluorescence(t0)). The values shown were the means of triplicate measurements of three independent transformants. Standard deviations were indicated by the error bars.
Data set [6] deals with the molecule itself. The data set is described as above.
Source text: as §1

T1 sequence (Q9Z255 whole entry): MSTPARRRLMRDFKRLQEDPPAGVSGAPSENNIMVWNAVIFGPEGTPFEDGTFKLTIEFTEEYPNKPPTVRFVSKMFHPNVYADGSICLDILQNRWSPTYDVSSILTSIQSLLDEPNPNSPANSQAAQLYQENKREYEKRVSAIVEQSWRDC

Consider B1, for which the binding result in data set [1] is on record as “binds”. With B2, the binding result in data set [2] is “no binding”. Also, in data set [3], the “# of clones” value is 1 clones. B3: the “# of clones” value in data set [3] came to 3 clones. On to B4, for which the “# of clones” value in data set [3] turned out to be 7 clones.

For the molecule B5, the binding result in data set [2] is listed as “no binding”. In addition, the “# of clones” value in data set [3] is 1 clones. B6: the binding result in data set [4] is “no binding”; in the data set with cyclin B1, full-length, “binds”; in data set [5], “binds”; in data set [6] it was “no binding”. Take B7: the “# of clones” value in data set [3] came to 2 clones. Same read-out and setting: for B8 the value was 1 clones.
